Reference: patent US20250313636A1 (PARAGON THERAPEUTICS, published 2025)

Key:
[1] = target: T1, α4β7 integrin expressed on cells (UniProt P13612 34-1032; P26010 20-798, limits assumed); assay: cell-based or functional assay
[2] = target: T1, α4β7 integrin expressed on cells; assay: flow cytometry on RPMI-8866 cells (α4β7 only)
Procedure: (§1) Antibody binding to α4β7 integrin or α4β1 integrin expressed on cells was determined using FACS and two cell lines. […] The second cell line was Ramos and is known to only express α4β1. Briefly, cells were cultured and harvested according to standard vendor instructions. Cells were stained with purified antibodies at concentrations of 0 nM, 0.0064 nM, 0.032 nM, 0.16 nM, 0.8 nM, 4 nM, 20 nM, and 100 nM and incubated at 4° C. for 1 hour. Cells were subsequently stained with an Alexa Fluor 488-conjugated goat anti-human IgG secondary antibody at a 1:1000 dilution. Cells were incubated 4° C. for 1 hour, protected from light. Cells were then washed and the MFI of cells in each well were recorded by FACS using a flow cytometer. Subsequent data were analyzed using GraphPad Prism. […] On the other hand, an anti-α4 antibody tested binds to both cell lines.

[3] = target: T2, recombinant human α4β7 integrin (human, UniProt P13612 34-977; P26010 20-723, limits assumed); assay: SPR, antibody captured on anti-human Fc CM5 chip, recombinant human α4β7 integrin as analyte, 25 °C, 1:1 model; apparent KD
T2 sequence (P13612 34-977 limits assumed, chain 1 of 2): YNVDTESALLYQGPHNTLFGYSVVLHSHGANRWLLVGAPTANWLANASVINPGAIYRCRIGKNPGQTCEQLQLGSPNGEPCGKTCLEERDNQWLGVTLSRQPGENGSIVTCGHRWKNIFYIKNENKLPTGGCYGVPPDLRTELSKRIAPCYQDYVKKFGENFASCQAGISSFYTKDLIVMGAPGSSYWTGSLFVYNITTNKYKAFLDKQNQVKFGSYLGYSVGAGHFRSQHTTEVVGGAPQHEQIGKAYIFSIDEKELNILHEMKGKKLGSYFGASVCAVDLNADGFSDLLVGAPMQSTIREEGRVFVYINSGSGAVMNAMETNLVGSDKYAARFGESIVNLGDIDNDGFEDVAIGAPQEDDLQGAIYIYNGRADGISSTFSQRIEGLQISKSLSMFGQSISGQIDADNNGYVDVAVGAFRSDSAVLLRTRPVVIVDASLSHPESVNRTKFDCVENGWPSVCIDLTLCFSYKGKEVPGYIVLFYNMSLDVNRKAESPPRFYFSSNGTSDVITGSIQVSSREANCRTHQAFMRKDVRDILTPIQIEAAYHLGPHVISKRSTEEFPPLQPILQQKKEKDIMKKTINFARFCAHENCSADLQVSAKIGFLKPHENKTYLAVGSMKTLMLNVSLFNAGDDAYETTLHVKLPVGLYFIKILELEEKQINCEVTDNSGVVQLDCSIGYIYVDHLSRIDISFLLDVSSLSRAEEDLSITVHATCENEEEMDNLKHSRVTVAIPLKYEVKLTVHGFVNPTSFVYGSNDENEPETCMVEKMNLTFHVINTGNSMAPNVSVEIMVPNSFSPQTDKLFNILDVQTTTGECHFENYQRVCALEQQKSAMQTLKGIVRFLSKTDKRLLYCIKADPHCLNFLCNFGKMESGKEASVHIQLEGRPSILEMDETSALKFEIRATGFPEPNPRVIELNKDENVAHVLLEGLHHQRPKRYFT
T2 sequence (P26010 20-723 limits assumed, chain 2 of 2): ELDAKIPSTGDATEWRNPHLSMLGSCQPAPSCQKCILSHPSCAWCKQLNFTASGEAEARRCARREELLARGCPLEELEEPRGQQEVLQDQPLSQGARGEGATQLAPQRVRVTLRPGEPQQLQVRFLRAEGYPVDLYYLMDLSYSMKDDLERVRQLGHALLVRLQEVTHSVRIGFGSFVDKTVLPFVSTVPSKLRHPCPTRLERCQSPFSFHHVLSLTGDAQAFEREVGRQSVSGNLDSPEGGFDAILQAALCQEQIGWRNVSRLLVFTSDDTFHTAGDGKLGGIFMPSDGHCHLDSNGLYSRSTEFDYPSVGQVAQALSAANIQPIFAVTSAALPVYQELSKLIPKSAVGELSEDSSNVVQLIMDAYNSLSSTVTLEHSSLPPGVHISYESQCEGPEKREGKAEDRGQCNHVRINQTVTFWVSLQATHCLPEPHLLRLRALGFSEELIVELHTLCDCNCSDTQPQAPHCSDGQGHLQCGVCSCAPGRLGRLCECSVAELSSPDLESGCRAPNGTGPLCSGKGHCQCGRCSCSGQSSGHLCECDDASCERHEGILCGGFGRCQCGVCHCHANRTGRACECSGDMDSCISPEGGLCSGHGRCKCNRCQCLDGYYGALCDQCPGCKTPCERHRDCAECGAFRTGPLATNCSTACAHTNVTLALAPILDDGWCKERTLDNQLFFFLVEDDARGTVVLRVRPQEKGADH
Procedure: (§2) Following a stabilization period in running buffer, antibodies previously diluted to 1-1.5 μg/mL were captured on the chip for 30 seconds at a flow rate of 10 μL/min. Subsequently, recombinant human α4β7 integrin was prepared at concentrations of 1.563 nM, 3.125 nM, 6.25 nM, 12.5 nM, 25 nM, 50 nM and 100 nM and injected at a flow rate of 30 μL/min for 180 seconds followed by a dissociation phase with just running buffer at a flow rate of 30 μL/min for 1200 seconds. Samples were injected in a multi-cycle manner over freshly captured mAb, by regenerating the capture surfaces with injection of 10 mM Glycine, pH 1.5. The data was processed and analyzed with SPR analysis software, where sensorgrams were fit to a 1:1 binding model to determine the apparent association (ka) and dissociation rate constants (kd). Their ratio provided the apparent equilibrium dissociation constant or affinity constant (KD=kd/ka).

[4] = target: T2, recombinant human α4β7 integrin; assay: SPR, antibody captured on anti-human Fc CM5 chip, recombinant human α4β7 integrin as analyte, 25 °C, 1:1 model
Procedure: as §2

[5] = target: T3, α4β1 integrin expressed on cells (UniProt P13612 34-1032; P05556 21-798, limits assumed); assay: flow cytometry on Ramos cells
T3 construct: whole, on cells; also called α4β1 on Ramos cells; α4β1 on HuT-78 cells
T3 sequence (P13612 34-1032 limits assumed, chain 1 of 2): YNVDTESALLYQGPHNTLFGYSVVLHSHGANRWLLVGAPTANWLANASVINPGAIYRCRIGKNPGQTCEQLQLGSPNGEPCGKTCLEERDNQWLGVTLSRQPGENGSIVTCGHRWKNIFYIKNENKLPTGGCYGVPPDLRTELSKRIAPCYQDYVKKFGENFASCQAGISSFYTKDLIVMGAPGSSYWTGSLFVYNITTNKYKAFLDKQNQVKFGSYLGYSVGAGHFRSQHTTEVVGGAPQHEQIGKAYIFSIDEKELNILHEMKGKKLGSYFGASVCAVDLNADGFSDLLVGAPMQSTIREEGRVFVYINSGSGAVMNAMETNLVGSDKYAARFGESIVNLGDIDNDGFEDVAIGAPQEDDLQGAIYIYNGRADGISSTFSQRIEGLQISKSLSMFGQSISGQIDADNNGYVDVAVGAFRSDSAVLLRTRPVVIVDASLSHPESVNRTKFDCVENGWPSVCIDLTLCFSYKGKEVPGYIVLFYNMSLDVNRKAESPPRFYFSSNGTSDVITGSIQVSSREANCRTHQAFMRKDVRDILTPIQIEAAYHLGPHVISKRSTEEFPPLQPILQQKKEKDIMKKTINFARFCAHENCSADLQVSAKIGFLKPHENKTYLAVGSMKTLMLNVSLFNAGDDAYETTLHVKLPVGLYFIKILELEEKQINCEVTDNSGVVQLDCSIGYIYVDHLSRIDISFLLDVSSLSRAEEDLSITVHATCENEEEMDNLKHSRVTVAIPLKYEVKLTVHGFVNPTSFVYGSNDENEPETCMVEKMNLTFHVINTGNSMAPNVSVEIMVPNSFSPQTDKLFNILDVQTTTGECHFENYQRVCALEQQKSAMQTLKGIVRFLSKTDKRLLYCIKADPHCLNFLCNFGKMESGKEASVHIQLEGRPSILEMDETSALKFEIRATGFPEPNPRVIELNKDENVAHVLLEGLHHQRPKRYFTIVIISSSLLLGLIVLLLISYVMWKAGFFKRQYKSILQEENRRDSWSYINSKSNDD
T3 sequence (P05556 21-798 limits assumed, chain 2 of 2): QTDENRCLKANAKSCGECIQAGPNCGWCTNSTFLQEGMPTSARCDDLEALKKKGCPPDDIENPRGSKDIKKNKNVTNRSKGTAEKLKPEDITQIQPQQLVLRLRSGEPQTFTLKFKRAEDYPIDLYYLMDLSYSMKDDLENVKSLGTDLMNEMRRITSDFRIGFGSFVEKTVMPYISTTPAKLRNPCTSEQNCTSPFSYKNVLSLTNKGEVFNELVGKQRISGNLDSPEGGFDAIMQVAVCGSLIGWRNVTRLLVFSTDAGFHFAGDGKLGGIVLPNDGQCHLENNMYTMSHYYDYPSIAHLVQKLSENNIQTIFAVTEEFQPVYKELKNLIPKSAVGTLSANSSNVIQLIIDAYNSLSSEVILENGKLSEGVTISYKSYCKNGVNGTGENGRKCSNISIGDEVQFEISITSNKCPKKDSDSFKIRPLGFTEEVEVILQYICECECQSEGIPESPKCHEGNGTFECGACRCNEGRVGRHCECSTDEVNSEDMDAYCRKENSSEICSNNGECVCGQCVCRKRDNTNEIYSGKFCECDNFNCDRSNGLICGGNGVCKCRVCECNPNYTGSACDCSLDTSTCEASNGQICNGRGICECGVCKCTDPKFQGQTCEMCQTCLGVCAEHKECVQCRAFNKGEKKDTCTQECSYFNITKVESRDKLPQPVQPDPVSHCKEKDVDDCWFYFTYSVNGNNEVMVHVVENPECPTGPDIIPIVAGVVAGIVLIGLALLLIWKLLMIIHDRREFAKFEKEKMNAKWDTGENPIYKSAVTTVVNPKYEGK
Procedure: as §1

T1 sequence (P13612 34-1032 limits assumed, chain 1 of 2): as the sequence (P13612 34-1032 limits assumed, chain 1 of 2) above
T1 sequence (P26010 20-798 limits assumed, chain 2 of 2): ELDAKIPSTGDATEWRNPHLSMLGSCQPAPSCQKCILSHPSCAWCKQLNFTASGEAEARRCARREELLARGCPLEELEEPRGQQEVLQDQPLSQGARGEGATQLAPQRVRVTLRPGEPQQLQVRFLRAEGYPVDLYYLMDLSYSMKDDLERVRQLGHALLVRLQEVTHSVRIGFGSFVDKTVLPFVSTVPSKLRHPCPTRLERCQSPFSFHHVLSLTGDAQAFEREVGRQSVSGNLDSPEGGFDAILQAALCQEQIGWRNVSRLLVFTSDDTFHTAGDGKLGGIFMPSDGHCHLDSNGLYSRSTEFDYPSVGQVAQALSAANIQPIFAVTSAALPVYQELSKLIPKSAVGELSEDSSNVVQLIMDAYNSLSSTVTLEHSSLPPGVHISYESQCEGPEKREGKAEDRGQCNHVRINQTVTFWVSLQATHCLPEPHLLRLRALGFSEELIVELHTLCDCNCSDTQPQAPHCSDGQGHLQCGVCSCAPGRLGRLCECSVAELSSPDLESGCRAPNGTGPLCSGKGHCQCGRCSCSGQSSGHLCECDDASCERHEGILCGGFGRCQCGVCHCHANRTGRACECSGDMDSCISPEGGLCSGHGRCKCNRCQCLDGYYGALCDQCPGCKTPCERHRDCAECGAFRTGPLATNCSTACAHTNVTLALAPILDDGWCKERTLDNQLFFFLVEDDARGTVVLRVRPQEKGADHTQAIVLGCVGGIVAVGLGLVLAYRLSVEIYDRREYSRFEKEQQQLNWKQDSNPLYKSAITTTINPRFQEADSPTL

| MAdCAM-1 Adhesion Inhibition IC50 [1] | EC50 [2] | Kd [3] | koff [4] | kon [4] | Binder | binding result [5] |
| --- | --- | --- | --- | --- | --- | --- |
| 0.087 nM | 0.2 nM | 6.79 nM | 0.000466 s⁻¹ | 68500 M⁻¹ s⁻¹ | Antibody 1 (antibody, V domains shown, It has a human Fc: captured by anti-human Fc in SPR, detected by anti-human IgG in FACS) VH: EVQLVQSGAEVKKPGSSVKVSCKASGGTFTSYWMHWVRQAPGQGLEWMGEIDPSESNTNYNQKFKGRATITADISTSTAYMELSSLRSEDTAVYYCARGGYDGWDYAIDYWGQGTLVTVSS VL: DVVMTQTPLSLPVTPGQPASISCRSSQSLAKSYGNTYLSWYLQKPGQSPQLLIYGISNRFSGVPDRFSGSGSGTDFTLKISRVEAEDVGVYYCLQGTHQPYTFGQGTKLEIK | no binding (tested: 100 nM (highest concentration tested)) |
| 0.15 nM | 0.27 nM | 2.1 nM | 0.000118 s⁻¹ | 56400 M⁻¹ s⁻¹ | Antibody 2 (antibody, V domains shown, It has a human Fc: captured by anti-human Fc in SPR, detected by anti-human IgG in FACS) VH: EVQLVESGGGVVQPGRSLRLSCAASGYTFTSYWMHWVRQAPGKGLEWIGEIDPSESNTNYNQKFKGRATISVDNSKNTAYLQMSSLRAEDTAVYYCARGGYDGWDYAIDYWGQGTLVTVSS VL: DVVMTQTPLSLPVTPGQPASISCRSSQSLAKSYGNTYLSWYLQKPGQSPQLLIYGISNRFSGVPDRFSGSGSGTDFTLKISRVEAEDVGVYYCLQGTHQPYTFGQGTKLEIK | no binding (tested: 100 nM (highest concentration tested)) |
